T1: Purified human recombinant renin (human, UniProt P00797 67-406)
T1 sequence (looked up): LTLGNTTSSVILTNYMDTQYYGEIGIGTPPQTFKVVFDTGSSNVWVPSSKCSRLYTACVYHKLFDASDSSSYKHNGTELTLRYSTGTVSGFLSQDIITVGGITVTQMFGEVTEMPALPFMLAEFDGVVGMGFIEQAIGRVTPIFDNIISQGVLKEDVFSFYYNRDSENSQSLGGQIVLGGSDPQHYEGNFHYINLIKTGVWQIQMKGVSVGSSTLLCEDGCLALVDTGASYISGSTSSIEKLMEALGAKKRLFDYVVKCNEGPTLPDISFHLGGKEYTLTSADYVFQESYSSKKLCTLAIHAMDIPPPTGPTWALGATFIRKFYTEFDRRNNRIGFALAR

T2: Renin substrate 1 (Arg-Glu(EDANS)-Ile-His-Pro-Phe-His-Leu-Val-Ile-His-Thr-Lys(dabcyl)-Arg)
T2 chain: REIHPFHLVIHTKR

B1: Purified human recombinant renin (protein)
chain: T1 sequence (looked up)

Assays:
[1] = biological target: T1, Purified human recombinant renin; assay: cell-based or functional assay
[2] = biological target: T2, Renin substrate 1 …

| Binder | RENIN INHIBITION % [1] | further results |
| --- | --- | --- |
| SNILEAA [SEQ ID NO. 20] | 24% | – |
| WPHT [SEQ ID NO. 18] | 9.3% | – |
| ADMFPF [SEQ ID NO. 23] | 76.2% | – |
| NFLAGPSD [SEQ ID NO. 25] | 6.73% | – |
| RAAP [SEQ ID NO. 14] | 15.4% | – |
| WLP [SEQ ID NO. 13] | 4.85% | – |
| WMP [SEQ ID NO. 15] | 43.4% | – |
| YKKSVSSESDPF [SEQ ID NO. 26] | 32.4% | – |
| TNPFPF [SEQ ID NO. 24] | 28% | – |
| HPGAG [SEQ ID NO. 16] | 21.2% | – |
| YPRE [SEQ ID NO. 19] | 22.2% | – |
| YAGVSLI [SEQ ID NO. 21] | 36% | – |
| RSPD [SEQ ID NO. 17] | 57.5% | – |
| B1 | – | Michaelis-Menten constant (Km) in the absence of peptide fractions [2]: 3.8 µM; Michaelis-Menten constant (Km) in the presence of peptide fraction T4 [2]: increased to 6.3 and 6.1 µM, respectively; Michaelis-Menten constant (Km) in the presence of peptide fraction T5 [2]: increased to 6.3 and 6.1 µM, respectively |
| AHPVAIN [SEQ ID NO. 22] | 43.5% | – |
